One may read the IC50 as the midpoint of a concentration-inhibition curve. A higher IC50 goes with a need for much substance. By Km is commonly meant the substrate concentration at which the rate is half of its maximum. By Vmax is commonly meant the rate approached at saturating substrate.

Data set [1] deals with T1, human alpha/beta hydrolase domain 6 (hABHD6) (Homo sapiens, UniProt Q9BV23, DEL38-40).
T1 construct: gene ABHD6; hΔ29-3-ABHD6 (first 29 residues and Y38YW deleted, N-terminal His6) for MS; full-length hABHD6 in solubilized E. coli membrane fraction for IC50
T1 sequence (Q9BV23 with tags, fused parts or gaps DEL38-40): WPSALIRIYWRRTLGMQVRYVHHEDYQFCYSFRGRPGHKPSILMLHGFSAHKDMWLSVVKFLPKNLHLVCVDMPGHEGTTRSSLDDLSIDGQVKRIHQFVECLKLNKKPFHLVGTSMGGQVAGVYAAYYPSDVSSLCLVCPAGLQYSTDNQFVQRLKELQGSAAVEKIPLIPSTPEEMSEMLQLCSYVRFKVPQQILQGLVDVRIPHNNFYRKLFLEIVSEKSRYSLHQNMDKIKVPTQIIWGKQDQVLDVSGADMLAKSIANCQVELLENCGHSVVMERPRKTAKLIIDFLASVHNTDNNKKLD
Nature of the data set: MALDI-TOF MS of tryptic digest showing +[…] Da adduct on purified enzyme; fluorometric AHMMCE inhibition assay. It counts as binding.

Substrate in data set [2]: CCCCC/C=C\C/C=C\C/C=C\C/C=C\CCCC(=O)OC(CO)CO
The data set is described as follows: HPLC quantification of arachidonic acid formed, Michaelis-Menten kinetics (Km). The format is biochemical, Homo sapiens.

`CN(C)C(=O)n1nnc(Cc2ccc(-c3ccccc3)cc2)n1` [AM6701] returned an IC50 in data set [1] of 0.9 nM.

B1: human alpha/beta hydrolase domain 6 (hABHD6) (Homo sapiens; DEL38-40) (protein)
chain: T1 sequence (Q9BV23 with tags, fused parts or gaps DEL38-40)
Consider B1, for which, in data set [2], the Km worked out at 139 µM and the Vmax turned out to be 0.35 µM/min/mg.

The values are drawn from paper PMC6351631, “Biochemical and Proteomic Characterization of Recombinant Human α/β Hydrolase Domain 6” (Scientific Reports, 2019).
